Measurements from PMC12365907, “https://orcid.org/0000-0002-7156-8846 Tungsirisurp Sireethorn Conceptualization Methodology Formal analysis Investigation Data curation Writing – original draft Writing – review & editing”.

Experiments:
[1] = target: T1, SARS-CoV-2 spike receptor binding domain (RBD) (SARS-CoV-2, UniProt P0DTC2 319-541); experiment: ELONA; details: protein: commercial; label: 5'-biotin
[2] = target: T1, SARS-CoV-2 spike receptor binding …; experiment: fluorescent strand displacement from beads; details: protein: commercial

Row | Binder | Kd [1] [nM] | binding result [2]
1 | RBD-1 aptamer (ssDNA) DNA: CAGCACCGACCTTGTGCTTTGGGAGTGCTGGTCCAAGGGCGTTAATGGACA | 4.58 ± 1.15 | 
2 | RBD-1/MM-T2 antisense duplex (mixed) DNA 1: CAGCACCGACCTTGTGCTTTGGGAGTGCTGGTCCAAGGGCGTTAATGGACA DNA 2: GACGGTGCTG |  | binds
3 | RBD-1/MM-T9 antisense duplex (mixed) DNA 1: CAGCACCGACCTTGTGCTTTGGGAGTGCTGGTCCAAGGGCGTTAATGGACA DNA 2: GTCGGTGCAG |  | binds
4 | RBD-1/CM antisense duplex (mixed) DNA 1: CAGCACCGACCTTGTGCTTTGGGAGTGCTGGTCCAAGGGCGTTAATGGACA DNA 2: GTCGGTGCTG |  | binds
